Data as given in article PMC8459920 (Molecular & Cellular Proteomics : MCP, 2021).

Biological target: T1, Cullin-5 (Cul5) (UniProt Q93034 1-780)
T1 construct: also called full-length Cul5
T1 sequence: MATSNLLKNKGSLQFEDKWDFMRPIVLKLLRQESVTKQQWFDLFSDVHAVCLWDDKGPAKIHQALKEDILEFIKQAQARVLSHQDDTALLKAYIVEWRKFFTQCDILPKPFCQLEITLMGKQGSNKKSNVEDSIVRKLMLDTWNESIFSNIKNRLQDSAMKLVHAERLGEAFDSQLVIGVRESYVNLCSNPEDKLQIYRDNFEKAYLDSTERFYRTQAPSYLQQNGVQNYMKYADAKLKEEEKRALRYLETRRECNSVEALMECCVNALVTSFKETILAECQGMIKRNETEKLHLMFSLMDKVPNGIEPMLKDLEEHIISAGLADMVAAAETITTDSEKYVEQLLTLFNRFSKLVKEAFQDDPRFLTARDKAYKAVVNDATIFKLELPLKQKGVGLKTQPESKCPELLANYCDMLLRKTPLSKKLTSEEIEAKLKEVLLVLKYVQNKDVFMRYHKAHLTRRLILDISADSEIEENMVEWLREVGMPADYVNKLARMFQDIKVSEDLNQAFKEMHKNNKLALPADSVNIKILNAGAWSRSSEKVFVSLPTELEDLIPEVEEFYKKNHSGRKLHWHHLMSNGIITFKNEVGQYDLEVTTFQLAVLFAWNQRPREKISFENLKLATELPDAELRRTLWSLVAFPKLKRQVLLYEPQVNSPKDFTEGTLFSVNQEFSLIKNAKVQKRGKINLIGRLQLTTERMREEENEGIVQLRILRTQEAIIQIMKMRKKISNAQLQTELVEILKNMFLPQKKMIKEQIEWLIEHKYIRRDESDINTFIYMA
Assay: cross-linking; DSSO cross-linking with LC-MS3 (XL-MS) of reconstituted complexes at ~5 uM in 20 mM HEPES pH 7.5, 300 mM NaCl, 10% glycerol; 37 °C, 30 min; cross-linked SDS-PAGE bands digested in gel with trypsin or chymotrypsin; data of the four complexes pooled
Details: both partners purified

B1: Rbx2 (natural protein)
chain: MADVEDGEETCALASHSGSSGSKSGGDKMFSLKKWNAVAMWSWDVECDTCAICRVQVMDACLRCQAENKQEDCVVVWGECNHSFHNCCMSLWVKQNNRCPLCQQDWVVQRIGK
notes: also called E2 docking protein Rbx2
  binding result: binds
